Assay results as given in publication PMC9678342.

Tests used:
[1] = target: HSV-1 glycoprotein D, C-terminal truncated mutant gD285 (aa 1-285) (herpes simplex virus type 1 (HSV-1)); assay: AUC; sedimentation velocity, gD alone at 5, 10 and 20 uM in PBS pH 7.8, 20 C, 40k rpm, absorbance optics, c(s) distributions in SedFit; monomer and dimer species, said not to be in a monomer-dimer equilibrium
[2] = target: HSV-1 glycoprotein D, C-terminal truncated mutant gD306 (aa 1-306) (herpes simplex virus type 1 (HSV-1)); assay: as above
HVEM (Homo sapiens) = HVEM (Homo sapiens) (UniProt Q92956); details: cited from earlier work
UniProt Q92956, sequence (Q92956 39-283): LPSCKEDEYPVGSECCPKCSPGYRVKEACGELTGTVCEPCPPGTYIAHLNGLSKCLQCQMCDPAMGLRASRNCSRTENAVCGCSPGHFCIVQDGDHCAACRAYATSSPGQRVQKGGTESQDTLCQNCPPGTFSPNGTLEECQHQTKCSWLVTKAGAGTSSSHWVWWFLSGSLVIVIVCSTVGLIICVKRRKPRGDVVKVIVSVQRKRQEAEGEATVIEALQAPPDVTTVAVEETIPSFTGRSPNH

## HSV-1 glycoprotein D, C-terminal truncated mutant gD285 (aa 1-285) (domain or fragment)
[1]
  stoichiometry N: 2

## HSV-1 glycoprotein D, C-terminal truncated mutant gD306 (aa 1-306) (domain or fragment)
[2]
  stoichiometry N: 2

## glycoprotein D (gD285) gD285 (from UniProt Q69091)
HVEM (Homo sapiens)
  Kd: 37 nM
